In publication PMC5539292, “Calcium Ion Induced Structural Changes Promote Dimerization of Secretagogin, Which Is Required for Its Insulin Secretory Function” (Scientific Reports, 2017):
One block for each molecule: values may come before it.

Experiments:
[1] = biological target: recombinant human secretagogin (hSCGN) wild type (human) (UniProt O76038); assay: SEC; 450 µg protein on Superdex 200 HR 10/30 in PBS, 0.5 mL/min; samples pretreated with EGTA and DTT, then treated with Ca^2+ and H2O2
[2] = biological target: the molecule itself; assay: non-reducing SDS-PAGE of disulfide-linked dimers; recombinant protein incubated with 0 or 2 mM CaCl2 at R.T. for 15 min, then H2O2 at 37°C for 1 h; Coomassie blue staining

stoichiometry N [1]: 2
Molecule: recombinant human secretagogin (hSCGN) wild type (from UniProt O76038 1-276) (natural protein)

B1: purified hSCGN ΔEF1 (deletion of 1-52 a.a.) (domain or fragment, human, UniProt O76038 53-276, looked up)
chain: TVMKANLHKVKQQFMTTQDASKDGRIRMKELAGMFLSEDENFLLLFRRENPLDSSVEFMQIWRKYDADSSGFISAAELRNFLRDLFLHHKKAISEAKLEEYTGTMMKIFDRNKDGRLDLNDLARILALQENFLLQFKMDACSTEERKRDFEKIFAYYDVSKTGALEGPEVDGFVKDMMELVQPSISGVDLDKFREILLRHCDVNKDGKIQKSELALCLGLKINP
notes: human secretagogin (SCGN) without residues 1-52 (EF1); The methods describe ΔEF1 only as a pcDNA3.1 construct; also called ΔEF1 protein; recombinant ΔEF1; source: purified recombinant protein
binding result [2]: binds
